Experimental data: US12577311

Assays:
[1] = biological target: CD70-APC (UniProt P32970); assay: FACS binding
[2] = biological target: CD70 on CD70+ skrc-59 ccRCC cells (UniProt P32970); assay: FACS binding; settings: Fc fusion
CD70 on CD70+ skrc-59 ccRCC cells, sequence (P32970 whole entry, the tested form may be a part): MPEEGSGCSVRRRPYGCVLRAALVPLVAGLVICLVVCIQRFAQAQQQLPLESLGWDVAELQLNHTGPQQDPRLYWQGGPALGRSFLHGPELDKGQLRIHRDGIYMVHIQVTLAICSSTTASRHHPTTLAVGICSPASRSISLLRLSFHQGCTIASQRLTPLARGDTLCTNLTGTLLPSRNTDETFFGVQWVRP

CD70-APC, sequence (P32970 39-193): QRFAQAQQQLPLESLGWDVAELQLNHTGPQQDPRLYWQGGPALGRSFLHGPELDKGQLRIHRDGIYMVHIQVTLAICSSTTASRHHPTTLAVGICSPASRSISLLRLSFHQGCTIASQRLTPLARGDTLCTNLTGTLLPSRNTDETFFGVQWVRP

| EC50 [1] [µg/mL] | EC50 [2] [µg/mL] | Substance |
| --- | --- | --- |
| 0.917 |  | CD27 |
|  | 0.114 | anti-CD70 minibody #7 (from UniProt P01721 20-117) |
